# Measurements as given in the nanobody polyreactivity screen of Harvey et al. (2022).
# Assay: yeast display, Sf9 membrane polyspecificity reagent, FACS + sequencing; frameworks hold sequencing errors
# Method in brief: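 Galactose-induced (36–48 hours) yeast carrying a synthetic nanobody display library were exposed to 10% biotinylated, detergent-solubilized Sf9 membrane reagent at 4 °C for 1 hour. FACS followed streptavidin microbead enrichment, using low and high (top ~1%) gates for expression (anti-HA) and reagent binding (streptavidin). Colony PCR, MiSeq 2 × 250 sequencing and CDR-length filtering followed. Labels for polyreactivity reflect the gate of origin.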
row,Sequence,polyreactivity (PSR sort gate)
1,QVQLVESGGGLVQAGGSLRLSCAASGSIFPYYVMGWYRQAPGKERYADSVKGRFTISRDNAKNTVYLQMNSLKPVDTAVYYSAAKVPEPPSLDESDYWGQGSQVTVSS,low polyreactivity
2,QVQLVESGGGLVQAGGSLRLSCAASGSIFQANAMGWYRQAPGKERELLAAISSRGGSTYYADSVKGRFTISRDNAKNTVYLQMNSLKPGDTAVYYCAADSIQYTARPYDYWGQGTQVTVSS,low polyreactivity
3,QVQLVESGGGLVQAGGSLRLSCAASGSIFQDNTMGWYRQAPGKESELVAAISWSATSTYYADSVKGRFTISRDNAKNTVYLQMNSLNPEDTAVYYCAARYWLFPPGYNYWGQGTQVNVSS,high polyreactivity
4,QVQLVESGGGLVQAGGSLRLSCAASGSIFQGNAMGWYRQAPGKERELVAAISQSGGRTYYADSVKGRFTITRDNAKNTVYLQMNSLKPEDTAVYYCNTTKVYRLRFDYWGQGTQVTVSS,low polyreactivity
5,QVQLVESGGGLVQAGGSLRLSCAASGSIFQGYAMGWYRQAPGKERELVAAITASGGSTYYADSVKGRFTISRDNAMNTVYLQMNSLKPEDTAVYYCAAVRKSVGVKYDFWGQGTQVTVSS,high polyreactivity
6,QVQLVESGGGLVQAGGSLRLSCAASGSIFQGYAMGWYRQAPGKERELVAVITSSGGSTYYADSVKGRFTISRDNAKNTVYLQMNSLKPEDTAVYYCAVGLLVYSRTYIGQAFFRYNYWGQGTQVTVSS,high polyreactivity
7,QVQLVESGGGLVQAGGSLRLSCAASGSIFQIYAMGWYRQAPGKERELVAAINSGGITKYADSVKGRFTISRDNAKNTVYLQMNSLKPEDTAVYYCAKRYGWPYGRFDYWGQGTQVTVSS,low polyreactivity
8,QVQLVESGGGLVQAGGSLRLSCAASGSIFQKYAMGWYRQAPGKDRELVAAISWDGGRTYYADSVKGRFTISRDNAKNTVYLQMNSLKPEDTAVYYCYWYDYWGHGTQVTVSS,high polyreactivity
9,QVQLVESGGGLVQAGGSLRLSCAASGSIFQLNAMGWYRQAPGKERELDAAITSGGSTYYADSVKGRFTISRDNAKNTVYLQMNSLKPEDTAVYYCAAYYLYTTPTSEWLSGYDYWGQGTQVTVSS,low polyreactivity
10,QVQLVESGGGLVQAGGSLRLSCAASGSIFQNYAMGWYRQAPGKERELVAAISWSGDTYYADSVKGRFTISRDNAKNTVYLQMNSLKPEDTAVYYCAATYPYSLYYPYYGGDYDYWGQGTQVTVSS,low polyreactivity
11,QVQLVESGGGLVQAGGSLRLSCAASGSIFQPNAMGGGGQAPGKERELVASIRGRGGDTYYADSVKGRFTISRDNAKNTVYLQMNSLKPEDTAVYYCAADYRWGQGTQVTVSS,low polyreactivity
12,QVQLVESGGGLVQAGGSLRLSCAASGSIFQPYAMGWYRPAPGKERELVAAINGRGGSTHYADSVKGRFTISRDNAKNTVYLQMNSLNPEDTAVYYCAATWAYPGSGYVYFYGNDYWGQGTQVTVSS,high polyreactivity
13,QVQLVESGGGLVQAGGSLRLSCAASGSIFQPYAMGWYRQAPGKEREFVAAISRSGGITYYADSVKGRFTISRDNAKNTVYLQMNSLKPEDTAVYYCATGRQVVRSYSEGDYWGQGTQVTVSS,low polyreactivity
14,QVQLVESGGGLVQAGGSLRLSCAASGSIFQPYAMGWYRQAPGKERELVATISSSGSTYYADSVKGRFTISRDNAKNTVYLQMTSLKPEDTAVYYCAAVYSDGPYNGYWLEYEYWGQGTQVTVSS,low polyreactivity
15,QVQLVESGGGLVQAGGSLRLSCAASGSIFQRYAMGWYRQAPGKEREFVAAISGRGGSTYYADSVKGRFTISRDNAKNTVYLQMNSLKPEDTAVYSCAADSSRFYGRPRYYYWGQGTQVTVSS,high polyreactivity
16,QVQLVESGGGLVQAGGSLRLSCAASGSIFQSYAMGWYRQAPGKERELVAAIDRSGTSTYYADSVKGRFTISRDNAKNTVYLQMNSLKPEDTAVYYCNTLRRSWQMDYWGQGTQVTVSS,low polyreactivity
17,QVQLVESGGGLVQAGGSLRLSCAASGSIFQSYDMGWYRQAPGKERELVAAIRSGDSTYYADSVKGRFTISRDNAKNTVYLQMNSLKPEDTAVYYCNARYGNESQGWEDYWGQGTQVTVSS,low polyreactivity
18,QVQLVESGGGLVQAGGSLRLSCAASGSIFQSYSMGWYRQAPGKERELVAAISRGGSTYYADSVKGRFTISRDNAKNTVYLQMNSLKPEDTAVYYCAAGSGGGKYLYYYWGQGTQVTVSS,low polyreactivity
19,QVQLVESGGGLVQAGGSLRLSCAASGSIFQVYAMGWYRQAPGKETELVAAIRRRGGSTYYADSVKGRFTISRDNAKNTVYLQMNSLKPEDTAVDYCAARTVGFYRYDYWGLGTQVTVSS,low polyreactivity
20,QVQLVESGGGLVQAGGSLRLSCAASGSIFQVYAMGWYSQAPGKERELVAAITKSGVSTYYADSVKGRFTISRDNAKNTVYLQMNSLKPEDTAVYYCAAPRYVRYHRGYGFDYWGQGTQVTVSS,low polyreactivity
21,QVQLVESGGGLVQAGGSLRLSCAASGSIFQWYAMGWYRQAPGKERELVAAITISGGSTHYADSVKGRFTISRDNAKNTVYLQMNSLKPEDTAVYYCATPRYPSYDYWGQGTQVTVSS,low polyreactivity
22,QVQLVESGGGLVQAGGSLRLSCAASGSIFQYNAMGWYRPAPGKERELVAAISSRGGITYYADSVKGRFTISRDNAKNTVYLQMNSMKPEDTAVYDCAAVAYYSEVRWYEYWGQGTQVTVSS,high polyreactivity

row,Sequence,polyreactivity (PSR sort gate)
1,QVQLVESGGGLVQAGGSLRLSCAASGSIFQYNAMGWYRQAPGKEREFVAAISSRGGITYYADSVKGRFTISRDNAKNTVYLQMNSLKPEDTAVYYCAAEAYYSEVRWYEYWGQGTQVTVSS,high polyreactivity
2,QVQLVESGGGLVQAGGSLRLSCAASGSIFQYNAMGWYRQAPGKERELVAAISSRGGITYYADSVKGRFTISRDNAQNTVYLQMNSLKPEDTAVYYCAAEAYYSEVRWYEYWGQGTQVTVSS,high polyreactivity
3,QVQLVESGGGLVQAGGSLRLSCAASGSIFQYNAMGWYRQEPGKERELVATITYIGGRTYYAYSVKGRFTISRDNAKNTVYLQMNSLKPEDTAVYYCAAEYYVISSPSFYEYDYWGQGTQVTVSS,low polyreactivity
4,QVQLVESGGGLVQAGGSLRLSCAASGSIFQYYAMGWYRPAARKERELVAAISWSGGSTYYADSVKGRFTISRDNAKTTVSFLMNSLKPEDTAVYYCNARLYHLDYQGRIIRYDYWGQGTQVTESS,high polyreactivity
5,QVQLVESGGGLVQAGGSLRLSCAASGSIFQYYAMGWYRQAPGKEREFVAAISSSGGSTYYADSVKGRFTISRDNAKNTVSLQMNSLKPEDNAVYYCNTPYNGFRFDYWGQGTQVTVSS,low polyreactivity
6,QVQLVESGGGLVQAGGSLRLSCAASGSIFQYYTMGWYRQAPGKERELVATISRRGGTTYYADSVKGRFTISRDNAKNTVYLQMNILKPEDTAVYYCNADSRTYRYYWSYGYWGQGTQVTVSS,high polyreactivity
7,QVQLVESGGGLVQAGGSLRLSCAASGSIFRAYAMGWYRQAPGKERELVADISIGDNTYYADSVKGRFTISRDNAKNTVYLQMNSLKPEDTAVYYCAAVSDDVPWYWPQYTILDYWGQGTQVTVSS,high polyreactivity
8,QVQLVESGGGLVQAGGSLRLSCAASGSIFRAYAMGWYRQAPGKERELVATIRKSGGSTYYADSVKGRFTISRDNAKNTVYLQMNSLKPEDTAVYYCAARTIRYVNFYYWGQGTQVTVSS,high polyreactivity
9,QVQLVESGGGLVQAGGSLRLSCAASGSIFRCNAMGWYRQAPGKERELVAVINSSGGSTYYADSVKGRFTISRDNAKNTVYLQMNSLKPEDTAVYYCAADLFLDGSSQYDPNWWPDGWNTYRLLGGYWGQGTQVTVSS,low polyreactivity
10,QVQLVESGGGLVQAGGSLRLSCAASGSIFRDNAMGWYRQAPGKERELVASIRSSGGRTYYADSVKGRFTISRDNANNTVYLQMNSLKPEDTAVYYCAADWIYAPWYYQESVEYYYWGQGTQVTVSS,low polyreactivity
11,QVQLVESGGGLVQAGGSLRLSCAASGSIFRDYTMGWYRQAPGKERELVAAIRQDGGTTTYADSVKGRFTISRDNAKNTVYLQMNSLKPEDTAVYLWGQGTQVTVSS,low polyreactivity
12,QVQLVESGGGLVQAGGSLRLSCAASGSIFRFYAMGWYRQAPGKERELVADISWRGGSTYYADSVTGRFTISRDNAKNTVYLQMNSLKPEDTAVYYCAADGPGKYDYWGQGTQVTVSS,high polyreactivity
13,QVQLVESGGGLVQAGGSLRLSCAASGSIFRFYAMGWYRQATGKEREFVASITGTGGSTYYADSVKGRFTISRDNAKNTVYLQMNSLKPEDTAVYYCNARPYGWYDTYRLYGYWGQGTQVTVSS,high polyreactivity
14,QVQLVESGGGLVQAGGSLRLSCAASGSIFRGKAMGWSRQAPGKERELVAGINRAGSTKYADSVKGRFTISRDNAKNTVYLQMNSLKPEDTAVYYCAAVRYERGLWSDYWGLGTQVTVSS,high polyreactivity
15,QVQLVESGGGLVQAGGSLRLSCAASGSIFRGNAMGWYIQAPGKERELVAGINRAGSTKYADSVKGRFTISRDNAKNTVYLQMNSLKPEDTAVYYCAAVRYVRCLWSDYWGQGTKVTVSS,high polyreactivity
16,QVQLVESGGGLVQAGGSLRLSCAASGSIFRGNAMGWYRQAPGKERELVAAISKSGGSTYYADSVKGRFTISRDNAKNTVYLQMNSLKPEDTAVYYRAARTTYLYGMYYWGQGTQVTVSS,low polyreactivity
17,QVQLVESGGGLVQAGGSLRLSCAASGSIFRGNAMGWYRQAPGKEREMVAAISVSGSRTYYADSVKGRFTISRDNAKNTVYLQMNSLIPEDTAVYYCNAVLRVKGSGDFDYWGEGTQVTVSS,high polyreactivity
18,QVQLVESGGGLVQAGGSLRLSCAASGSIFRGYAMGWYRQAPGKERELVAAINWSGSSTYYADSVKGRFTISRDNAKNTVYLQMYSMKPEDSAVYYCALVYYNRNLGGDYWGQGTQVTVSS,low polyreactivity
19,QVQLVESGGGLVQAGGSLRLSCAASGSIFRGYAMGWYRQATGKERELVATIDSSAGSTYYADSVKGRFTISRDNAKNTVYLQMHSLKPEDTAVYYCATDPYGYYYSGFDYWGQGTQVTVSS,low polyreactivity
20,QVQLVESGGGLVQAGGSLRLSCAASGSIFRGYAMGWYRQEPEKERELVAAMSRRGGSTYYADSVKGRFSISRDNAKNTVYLQMNSLKPEDTAVYYCAKDGTGAGNYDYWGQGTQVTVSS,low polyreactivity
21,QVQLVESGGGLVQAGGSLRLSCAASGSIFRGYTMGWYRQAPGKERELVAAISRSGGSTYYADSVKGRFTISRDNAKNTVYIQMNSLKPEDTAVYYCNVVYFVTTSPGYDYWGQGTQVTVSS,high polyreactivity
